Laboratory results published in the DeepSol protein solubility set.

Experiment: soluble on expression in E. coli; label from the status in PepcDB or PDB records

Sequence | soluble on expression in E. coli
SLKRIDWNIQYLSLPPVIKHCKKCGKKTEFICSGMFRINAQRKYLDVWLIYKCSNCNSTWNMTIYTRVKPKSIEPKLLEAFHNNDKELAERYAVNLELIRKNGVELGYTKYKIIGEDINFRIPVELHIKSTYPSQLKVAALIREKLNLSQSSFESLITKGLIRGDTEINLKKCRLRTEVIVIIDSLDWSEVAFALAL | soluble
MGSDKIHHHHHHMIEKTNPSHILLPEDSIKKYILPKYNLQDAEILQIKFKDTEKQRAVYKLTLGSKKYCLKKVYYDKGELLFVYSTTEWFFRHGINVTRILPTLDNSRFVIYSGMIFILMPWIDGLKCNYDKKEDLFKASKNLAHMHKCSQKFFSIQGSSIRYGFEHIYLSNKKHFEQILSFFNKAYEINDSFSKIALNNCDLCIKLSKIALNASSRIESRNFKKSLCHLDYVNKNIIFDKNNDIWVIDFDKCKFDYSVHDISYFMRRIMKRDNTRWNSELLINMLNVYEQINPLNLDEYLYILSYLVFPQKFWKICKDYYNNLSRCNKAAFINLIKSTTKYSELHLKFAYNFSNYIEGKFNVSLNL | not soluble
MVDLSRRSMLTGSWRNASNGILPPWARETTYFLAHCLRCDACIQACEADILQRGAGGYPSVDFKRGECSFCYACAQACTESLFLPRHTRAWDLVFTLTENCLARQSVECHRCQDSCEPMAITFRPTLSGIYQPQLDSQACNGCGACVAICPVSAIKAENHHAH | not soluble
GSHMDLLDPVDILSKMPKDFYDKLEEKKWTLRKESLEVLEKLLTDHPKLENGEYGALVSALKKVITKDSNVVLVAMAGKCLALLAKGLAKRFSNYASACVPSLLEKFKEKKPNVVTALREAIDAIYASTSLEAQQESIVESLSNKNPSVKSETALFIARALTRTQPTALNKKLLKLLTTSLVKTLNEPDPTVRDSSAEALGTLIKLMGDKAVTPLLADVDPLKMAKIKECQEKAEIKIKVAG | soluble
MGAQNSKRKDLKNINDEDYAHFMEKLKKHTDGKDKMTRDQFVAMFIPILGEYSSQFYFRLVKNEPQGVLLAKTILKCIDTGLGHFDQLADMLRFCFGDQKDQIMRNVVKIFCEGNKFTREDQVRLYDYFETENTKPVSELESFFSMCPLFAYCASFIFQRLLDKTGDSKMPILSDKTHLMGNIDQLVLNSHLPFDRRKNWTLLYSNMKHGQSFSQLVKCINGEGPCMIVIRSMKGRRFGFFASQGFLAGPQYRGTAECFLFQLAPKIATFDATGRTENYVYLNYQQQQHPNGLGIGGTESVWPLFIHEEFGGGTCQKNSSSFEPCHIAEEDEFKIKTIEAWRPGDKPQKSFEEQILLEERSPEKSIIDKDPEARAVLELAGKSMHSEAYRDPAPLLDGE | not soluble
MTGHRPACPPIPADVYTRLERRIGRCHLNQRLGIEHDFEARIFGQGRTFFHIENWNRLHTLLRRLLKLSLLYRPGQRAARRIEIRRNEFTLPHLPEAFEGYTLLHISDLHLDMAGDLPDALIRAIGQAGHYDACVLTGDFRARTFGPYRGAIDGLAQVRTHIDKPVFAILGNHDTIRMTPEIEDLGIGVLLNEAREIRQDGASIFLAGVDDPHYYRADNIEKAADPIPQGAVSILLSHSPELYRHAAYADFDIMLCGHTHGGQICLPGGIALTLNARCPRAFGRGYWRYHRMQGYTSAGSGVSILDIRLNCPPEITLHRLSRHRLSKGGCECGGGKGLEHHHHHH | soluble
GHMIMANWQSIDELQDIASDLPRFIHALDELSRRLGLNITPLTADHISLRCHQNATAERWRRGFEQCGELLSENMINGRPICLFKLHEPVQVAHWQFSIVELPWPGEKRYPHEGWEHIEIVLPGDPETLNARALALLSDEGLSLPGISVKTSSPKGEHERLPNPTLAVTDGKTTIKFHPWSIEEIVASEQSA | soluble
MSLTKIKNIKTKVYQWNGKTVPPKNNFCTNASDILYEKSDAMGSFRFHEWLICEIETDDGVFGIGNAALAPQIVKKTIDTYLKPLVVGEDPFDYAYIWEKMYRRTHAWGRRGIGMIAMSAIDIGIWDILGKITNKPVFKLLGGRTKEKIPVYASKLYSQPLNELQKEAETYKNQGFKMYKMSFGWGPKDGPEGMKKNIDLVEAVREVIGDDSDLMLESYMGWNLDYSKRIIPKLIKFNPRWLEEPVIADDIAGYSELNKMGVIPISGGEHEFNLFGFKQLLDLKAVSYIQYDTNRVGGITAAQKINALAESFQVPVVPHAGQMHNYHLTMANFNCPISEYFPVHDVEVGNELFYYIFEGDPEPKNGNINLDDNIPGLGLKISDKYKSDFNIIDEGHHHHHH | soluble
